Assay [1] deals with T1, sIL-5Rα antigen protein (Sinobio 10392-H08H) (Homo sapiens (Human), UniProt Q01344 21-342).
T1 construct: Bought protein immobilised in the indirect ELISAs; also called soluble IL-5Rα; CD125
T1 sequence: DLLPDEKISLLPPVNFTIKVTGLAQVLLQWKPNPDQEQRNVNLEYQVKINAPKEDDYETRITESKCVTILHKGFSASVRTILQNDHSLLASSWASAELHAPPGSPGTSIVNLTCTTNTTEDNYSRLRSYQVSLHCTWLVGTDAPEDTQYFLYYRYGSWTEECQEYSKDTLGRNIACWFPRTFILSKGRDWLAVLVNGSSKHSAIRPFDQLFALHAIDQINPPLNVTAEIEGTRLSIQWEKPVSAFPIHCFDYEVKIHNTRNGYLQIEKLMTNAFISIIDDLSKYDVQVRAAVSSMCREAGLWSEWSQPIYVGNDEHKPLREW
As to the kind of experiment: indirect ELISA; plate-coated sIL-5Rα, antibody 100 nM, anti-human Fc-HRP, absorbance at 450 nm. As for the experimental part:
(§1) The binding specificity of the antibody was determined using indirect ELISA. A multi-antigen ELISA was performed using four structurally different antigenic double-stranded DNA (dsDNA), insulin, the macromolecule hemocyanin, and the membrane component, cardiolipin. Specifically, sIL-4Rα antigen protein (50 ng/well, sinobio; 10402-H08H), sIL-5Rα antigen protein (50 ng/well, sinobio; 10392-H08H), dsDNA (25 ng/well, D4522; Sigma), insulin (125 ng/well, 19278; Sigma), hemocyanin (125 ng/well, H8283; Sigma), and cardiolipin (1250 ng/well, C0563; Sigma) proteins were immobilized on a 96-well plate at room temperature for 1 hour, and blocked using 2% skim milk containing 0.1% PBST (0.1% Tween20, pH 7.4, 137 mM NaCl, 10 mM phosphate, 2.7 mM KCl) at room temperature for 1 hour. After discarding the solution and then washing the same three times with 0.1% PBST, the antibody was diluted to 100 nM, added to the blocked plate in an amount of 25 μl/well, and allowed to react at room temperature for 1 hour. After discarding the solution and washing the same three times with 0.1% PBST, an anti-human Fc-HRP antibody (1:8000) as a secondary antibody was added in an amount of 25 μl/well and reacted at room temperature for 1 hour. After discarding the solution and washing three times with PBST, a TMB solution was added in an amount of 25 μl/well, color development was induced at room temperature for 2 minutes, the reaction was stopped using H₂SO₄ (2N), and the absorbance at 450 nm was measured with an ELISA reader.
In general terms: An ELISA detects its analyte on a solid surface through an enzyme-linked reagent.

The target of assay [2] is T2, sIL-4Rα (soluble IL-4Rα) antigen protein (human, UniProt P24394 26-232).
T2 construct: The ELISA and Octet assays used the bought protein (Sinobio 10402-H08H); also called CD124; sinobio 10402-H08H
As to the kind of experiment: BLI (Octet QKe), antibody on AHC sensor, sIL-4Rα in solution, 1:1 model. The method, then: Antigen affinity of antibodies was analyzed through variation in the refractive index occurring when the antibody bound to the antigen was detached therefrom while the AHC (anti-human IgG Fc capture) sensor chip moved in the order of kinetic buffer, antibody dilution solution, kinetic buffer, antigen dilution solution, and kinetic buffer. Affinity was calculated with Octet Data Analysis software 11.0 in a 1:1 binding model.
A general note: BLI is a label-free optical method that tracks binding on a fibre tip over time.

The target in a further assay is T3, insulin (Homo sapiens (Human), UniProt P01308 25-54; P01308 90-110, Mature two-chain hormone: A and B chains joined by two interchain disulfides, plus one intrachain disulfide in the A chain; the letters do not carry these.).
T3 construct: Irrelevant antigen of the multi-antigen specificity ELISA; also called insulin (125 ng/well, 19278; Sigma)
T3 sequence (P01308 25-54 limits assumed, chain 1 of 2): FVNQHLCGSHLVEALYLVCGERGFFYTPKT
T3 sequence (P01308 90-110 limits assumed, chain 2 of 2): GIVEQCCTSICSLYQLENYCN
As to the kind of experiment: indirect ELISA; plate-coated insulin, antibody 100 nM, anti-human Fc-HRP, absorbance at 450 nm. The method, then:
as §1

For assay [3], the target named is T4, purified sIL-5Rα (Asp1-Asn313 of SEQ ID NO: 66) (Homo sapiens (Human), UniProt Q01344 21-333).
T4 construct: also called the purified sIL-5Rα
T4 sequence: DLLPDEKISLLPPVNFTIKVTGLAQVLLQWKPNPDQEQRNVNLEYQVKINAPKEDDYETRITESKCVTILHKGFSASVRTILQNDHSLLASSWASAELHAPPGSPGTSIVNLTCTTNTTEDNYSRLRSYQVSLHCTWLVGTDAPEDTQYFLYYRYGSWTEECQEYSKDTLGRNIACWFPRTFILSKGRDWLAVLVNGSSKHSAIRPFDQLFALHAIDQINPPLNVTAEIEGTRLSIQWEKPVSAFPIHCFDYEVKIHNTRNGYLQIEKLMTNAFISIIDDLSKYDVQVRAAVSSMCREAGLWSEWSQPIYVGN
As to the kind of experiment: BLI (Octet QKe), antibody on AHC sensor, purified sIL-5Rα in solution, 1:1 model. As for the experimental part: Specifically, lx kinetic buffer was prepared by diluting 10× kinetic buffer (ForteBio, 18-1105) in PBS. […] Affinity was calculated with Octet Data Analysis software 11.0 in a 1:1 binding model.

B1: 4R34.1.19 antibody (antibody, V domains shown)
VH: EVQLLESGGGLVQPGGSLRLSCAASGFTFSRHAMAWVRQAPGKGLEWVSAITSSGRSIYYADSVKGRFTISRDNSKNTLYLQMNSLRAEDTAVYYCARVHRAFDYWGQGTLVTVSS
VL: QSVLTQPPSASGTPGQRVTISCSGSPLFPDSGSFNWYQQLPGTAPKLLIYADSHRPSGVPDRFSGSKSGTSASLAISGLRSEDEADYYCGTWDYSLSGYVLGGGTKLTVLG
notes: Parent anti-IL-4Rα antibody, tested as IgG1 and captured through human Fc; also called anti-IL-4Rα antibody (4R34.1.19)
On to B1, for which, in assay [1], the binding result was “binds”.

B2: 4R.N1 (antibody, V domains shown)
VH: EVQLLESGGGLVQPGGSLRLSCAASGFTFSRHAMAWVRQAPGKGLEWVSAITASGRSIYYADSVKGRFTISRDNSKNTLYLQMNSLRAEDTAVYYCARVHRAFDYWGQGTLVTVSS
VL: QSVLTQPPSASGTPGQRVTISCSGSPLFPDSGSFNWYQQLPGTAPKLLIYADSHRPSGVPDRFSGSKSGTSASLAISGLRSEDEADYYCGTWDYSLNRYVLGGGTKLTVLG
notes: Converted from scFab to IgG1 (pcDNA3.4 vector with IgG1 constant regions) and expressed in HEK293F
In general, Kd refers to a measure of binding affinity in units of concentration. The term koff denotes a measure of how fast the partners let go of each other. The low end stands for a long-lived complex, the high end for a short-lived complex. Usually kon stands for the second-order rate constant of association. Higher therefore signals faster complex formation. As to B2, in assay [2], binding was characterised by a dissociation constant (Kd) of 0.17 nM, the dissociation rate constant (koff) amounted to 0.000338 s⁻¹ and the kon was 1.99e+06 M⁻¹ s⁻¹. The binding result in assay [1] is reported as “no binding (tested: 100 nM)”. Also, in the assay with insulin, the binding result was “no binding (tested: 100 nM)”.

B3: 4R.N3 (antibody, V domains shown)
VH: EVQLLESGGGLVQPGGSLRLSCAASGFTFSRHAMAWVRQAPGKGLEWVSAITMSGRSIYYADSVKGRFTISRDNSKNTLYLQMNSLRAEDTAVYYCARVHRAFDYWGQGTLVTVSS
VL: QSVLTQPPSASGTPGQRVTISCSGSPLFPDSGSFNWYQQLPGTAPKLLIYADSHRPSGVPDRFSGSKSGTSASLAISGLRSEDEADYYCGTWDYSLNRYVLGGGTKLTVLG
notes: Converted from scFab to IgG1 and expressed in HEK293F
In assay [2], B3 yielded a Kd of 0.0686 nM, a koff of 0.000139 s⁻¹ and a kon of 2.02e+06 M⁻¹ s⁻¹. Besides, the binding result in assay [1] is reported as “no binding (tested: 100 nM)”. In addition, the binding result in the assay with insulin is “no binding (tested: 100 nM)”.

B4: 4R.N5 (antibody, V domains shown)
VH: EVQLLESGGGLVQPGGSLRLSCAASGFTFSRHAMAWVRQAPGKGLEWVSAITASGMSIYYADFAKGRFTISRDNSKNTLYLQMNSLRAEDTAVYYCARVHRAFDYWGQGTLVTVSS
VL: QSVLTQPPSASGTPGQRVTISCSGSPLFPDSGSFNWYQQLPGTAPKLLIYADSHRPSGVPDRFSGSKSGTSASLAISGLRSEDEADYYCGTWDYSLNRYVLGGGTKLTVLG
notes: as for B3
With B4, in assay [2], binding was put at a Kd of 0.0748 nM, the koff amounted to 0.00012 s⁻¹ and the on-rate constant (kon) was determined as 1.6e+06 M⁻¹ s⁻¹.

B5: 4R.N6 (antibody, V domains shown)
VH: EVQLLESGGGLVQPGGSLRLSCAASGFTFSRHAMAWVRQAPGKGLEWVSAITMSGRSIYYADSVKGRFTISRDNSKNTLYLQMNSLRAEDTAVYYCARVHRAFDYWGQGTLVTVSS
VL: QSVLTQPPSASGTPGQRVTISCSGSPLFPDSGSFNWYQQLPGTAPKLLIYADSHRPSGVPDRFSGSKSGTSASLAISGLRSEDEADYYCGTWDYSLNSYVLGGGTKLTVLG
notes: as for B3
B5: in assay [2], the Kd stood at 0.0705 nM, the koff worked out at 0.000126 s⁻¹ and the kon amounted to 1.79e+06 M⁻¹ s⁻¹. For the same molecule, the binding result in assay [1] was “no binding (tested: 100 nM)”. In the assay with insulin, the binding result is reported as “no binding (tested: 100 nM)”.

B6: 4R.N4 (antibody, V domains shown)
VH: EVQLLESGGGLVQPGGSLRLSCAASGFTFSRHAMAWVRQAPGKGLEWVSAITMSGRGIYYADSVKGRFTISRDNSKNTLYLQMNSLRAEDTAVYYCARVHRAFDYWGQGTLVTVSS
VL: QSVLTQPPSASGTPGQRVTISCSGSPLFPDSGSFNWYQQLPGTAPKLLIYADSHRPSGVPDRFSGSKSGTSASLAISGLRSEDEADYYCGTWDYSLSAYVLGGGTKLTVLG
notes: as for B3
In assay [2], B6 showed a Kd of 0.0997 nM, a koff of 0.000162 s⁻¹ and a kon of 1.63e+06 M⁻¹ s⁻¹. Besides, the binding result in assay [1] is listed as “no binding (tested: 100 nM)”. For the same molecule, the binding result in the assay with insulin was “no binding (tested: 100 nM)”.

B7: 5R65 (antibody, V domains shown)
VH: QVQLVQSGAEVKKPGSSVKVSCKASGYTFTSYWINWVRQAPGQGLEWIGHIYPNKNENYYNHKFKDKATLTVDKSTNTAYMELSSLRSEDTAVYYCTRDYYGRSYYYAMDYWGQGTTLTVSS
VL: DIQMTQSPSTLSASVGDRVTITCKASQNVGTAVAWYQQKPGKAPKLLIYWASTRHTGVPDRFSGSGSGTDFTLTISSLQPDDFATYYCQQFGRYPYTFGSGTKVEVK
notes: IgG1 (variable regions in a pcDNA3.4 vector encoding IgG1 constant regions); also called anti-IL-5Rα humanized antibody 5R65; anti-IL-5Rα antibody (5R65)
In assay [3], B7 showed a Kd of 14.5 nM, a koff of 0.000329 s⁻¹ and a kon of 22700 M⁻¹ s⁻¹.

B8: 5R65.7 (antibody, IgG1, V domains shown)
VH: QVQLVQSGAEVKKPGSSVKVSCKASGYTFTSYWINWVRQAPGQGLEWIGHIYPNKNENYYNHKFKDKATLTVDKSTNTAYMELSSLRSEDTAVYYCTREFYGRQYYQAMDYWGQGTTLTVSS
VL: DIQMTQSPSTLSASVGDRVTITCKASQNVGTAVAWYQQKPGKAPKLLIYWASTRHTGVPDRFSGSGSGTDFTLTISSLQPDDFATYYCQQFGRYPYTFGSGTKVEVK
notes: IgG1
In assay [3], B8 yielded a Kd of 4.64 nM, an off-rate constant (koff) of 0.000147 s⁻¹ and a kon of 31700 M⁻¹ s⁻¹.

B9: 5R65.14 (antibody, IgG1, V domains shown)
VH: QVQLVQSGAEVKKPGSSVKVSCKASGYTFTSYWINWVRQAPGQGLEWIGHIYPNKNENYYNHKFKDKATLTVDKSTNTAYMELSSLRSEDTAVYYCTREHYGRPYYNAMDYWGQGTTLTVSS
VL: DIQMTQSPSTLSASVGDRVTITCKASQNVGTAVAWYQQKPGKAPKLLIYWASTRHTGVPDRFSGSGSGTDFTLTISSLQPDDFATYYCQQFGRYPYTFGSGTKVEVK
notes: IgG1
In assay [3], B9 gave a Kd of 8.64 nM, a koff of 0.000199 s⁻¹ and a kon of 23000 M⁻¹ s⁻¹.

B10: 5R65.18 (antibody, IgG1, V domains shown)
VH: QVQLVQSGAEVKKPGSSVKVSCKASGYTFTSYWINWVRQAPGQGLEWIGHIYPNKNENYYNHKFKDKATLTVDKSTNTAYMELSSLRSEDTAVYYCTREYYGRTYYSAMDYWGQGTTLTVSS
VL: DIQMTQSPSTLSASVGDRVTITCKASQNVGTAVAWYQQKPGKAPKLLIYWASTRHTGVPDRFSGSGSGTDFTLTISSLQPDDFATYYCQQFGRYPYTFGSGTKVEVK
notes: IgG1
In assay [3], B10 displayed a Kd of 5.95 nM, a koff of 0.000133 s⁻¹ and a kon of 22400 M⁻¹ s⁻¹.

B11: 5R65.10 (antibody, IgG1, V domains shown)
VH: QVQLVQSGAEVKKPGSSVKVSCKASGYTFTSYWINWVRQAPGQGLEWIGHIYPNKNENYYNHKFKDKATLTVDKSTNTAYMELSSLRSEDTAVYYCTREYYGRSYYAAMDYWGQGTTLTVSS
VL: DIQMTQSPSTLSASVGDRVTITCKASQNVGTAVAWYQQKPGKAPKLLIYWASTRHTGVPDRFSGSGSGTDFTLTISSLQPDDFATYYCQQFGRYPYTFGSGTKVEVK
notes: IgG1
For B11, in assay [3], the Kd came to 8.25 nM, the koff was 0.000201 s⁻¹ and the kon came to 24400 M⁻¹ s⁻¹.

(Values after US20230357415A1 (AJOU UNIVERSITY INDUSTRY ACADEMIC COOPERATION FOUNDATION, published 2023).)
